Measured values reported in patent US20240166756A1 (KAOHSIUNG MEDICAL UNIVERSITY, published 2024).

Legend:
[1] = molecular target: human C-X-C chemokine receptor 2 (CXCR2) (human) (UniProt P25025); test: flow cytometry, Alexa Fluor-488-conjugated control IgG1 on fixed MiaPaCa II cells (80 µg/ml per paragraph 49)
[2] = molecular target: human C-X-C chemokine receptor 2 (CXCR2) (human) (UniProt P25025); test: flow cytometry, Alexa Fluor-488-conjugated control IgG1 on fixed Panc-1 cells (80 µg/ml per paragraph 49)
[3] = molecular target: human C-X-C chemokine receptor 2 (CXCR2) (human) (UniProt P25025); test: flow cytometry, Alexa Fluor-488-conjugated control IgG1 on fixed HMC-1 cells (80 µg/ml per paragraph 49)
[4] = molecular target: T1, CXCR2 antigen peptide (NICR2 peptide) (human, not fully specified); test: SPR (Biacore), antibody flowed over the NICR2 peptide, Langmuir 1:1 fit
T1 construct: The immunogen was this peptide conjugated with ovalbumin at its C-terminus ('-C-Ovalbumin')
T1 peptide: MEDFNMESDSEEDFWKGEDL
Source text: Equilibrium affinity and rate constants derived from a Langmuir 1:1 binding kinetic analysis. The interactions between the humanized anti-CXCR2 mAb and the CXCR2 antigen peptide (NICR2 peptide) were detected by using SPR. The humanized anti-CXCR2 mAb flowed through the CXCR2 antigen peptide (NICR2 peptide) at the indicated concentrations. Data were corrected for nonspecific background binding. All data are representative of three independent experiments. […] Data shown is representative of 3 independent experiments.
The binding affinity of the humanized anti-CXCR2 monoclonal antibody (NICR2-5) was further investigated by surface plasmon resonance (SPR) Biacore technique. […] The binding of the humanized anti-CXCR2 mAb (NICR2-5) to cell surface receptor was analyzed by flow cytometry. Control IgG1 or humanized anti-CXCR2 mAb (NICR2-5) were conjugated with Alexa Fluor-488 fluorescent dye. Cancer cells were fixed with 3.5% formaldehyde for 15 min at room temperature. Fixed cells were incubated with fluorescent dye-conjugated IgG1 (80 μg/ml), or different concentrations of humanized anti-CXCR2 mAb (NICR2-5) (0, 40, 80 μg/ml) at 4° ° C. for 1 h. Cells were washed with phosphate-buffered saline (PBS) three times and subjected to flow cytometric analysis by using Attune NxT Flow Cytometer.

Chain of human C-X-C chemokine receptor 2 (CXCR2) (human) (P25025 whole entry): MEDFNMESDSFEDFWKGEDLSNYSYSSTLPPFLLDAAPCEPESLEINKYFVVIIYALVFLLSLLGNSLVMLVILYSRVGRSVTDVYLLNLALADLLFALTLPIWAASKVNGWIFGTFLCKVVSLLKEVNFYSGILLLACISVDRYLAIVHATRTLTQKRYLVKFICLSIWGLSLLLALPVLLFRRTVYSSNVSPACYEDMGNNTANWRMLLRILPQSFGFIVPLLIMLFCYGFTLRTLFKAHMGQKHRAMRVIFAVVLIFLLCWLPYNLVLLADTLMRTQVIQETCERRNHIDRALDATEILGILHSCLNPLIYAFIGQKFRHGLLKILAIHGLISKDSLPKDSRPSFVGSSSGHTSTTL

Question: Which Gated (%) [1] does the source give for hIgG (antibody) here?
Answer: Its Gated (%) is 9.3%.

Question: And the Gated (%) [2]?
Answer: The Gated (%) was 8.2%.

Question: What about the Gated (%) [3] of the same molecule?
Answer: The Gated (%) was 6.6%.

B1: humanized anti-CXCR2 monoclonal antibody (NICR2-5) (antibody, human IgG1, kappa, V domains shown)
VH: QITLKESGPTLVKPTQTLTLTCTFSGFSLRTSGMGVGWIRQPPGKALEWLAHIWWDDDKRYKPDLKSRLTITKDTSKNQVVLTMTNMDPVDTATYYCARLGLRLRTMDYWGQGTLVTVSS
VL: DIVMTQTPLSLSVTPGQPASISCRSSLSLVHSNGDTYLHWYLQKPGQSPQLLIYKVSNRFSGVPDRFSGSGSGTDFTLKISRVEAEDVGVYYCSQSTHVPTFGQGTKLEIKR
notes: CDRs cloned into human IgG1 vector; Conjugated with Alexa Fluor-488 for flow cytometry; also called anti-CXCR2 mAb; humanized anti-CXCR2 mAb (NICR2-5)
Question: How did the Kd [4] turn out when B1 was run?
Answer: Its Kd is 0.3 nM.
